The record followed here is patent US20030163846A1, “Process for the genetic modification of a plant” (priority 2000, published 2003).

Data set [1] is described as follows: 14C-saccharose uptake tests in yeast expressing SUT4 (SUSY7/ura3). The format is cell-based. As to conditions: for Km: Michaelis-Menten nonlinear regression. As to the method: (§1) The yeast strain SUSY7/ura3 is a modified version of SUSY7 (Riesmeier et al., EMBO J. (1992) 11, 4705-4713), which contains a deletion of a portion of the URA3 gene and, as a result, permits selection for uracil auxotrophy. Media that contained the 1.7 g/L yeast nitrogen base without amino acids (Difco), 2% saccharose, 20 mg/L tryptophane, and 1.5% agarose, pH 5.0, were used to analyze yeast growth on a saccharose medium.
(§2) For the saccharose uptake tests, yeast was cultivated in a liquid minimal medium containing glucose, up to an OD623 of approximately 0.8. Cells were collected by means of centrifugation, washed in 25 mM sodium phosphate buffer (pH 5.5), and suspended in the same buffer at an OD623 of 20. The uptake tests were initiated by adding glucose ending at a final concentration of 10 mM to the yeast cells one minute before adding ^14C-saccharose. Following incubation at 30° C. while stirring, cells were collected by means of vacuum filtration on fiberglass filters (1-5 minutes), washed twice with 4 mL 10 mM saccharose (at the freezing point), and the radioactivity was determined using a liquid scintillation counter. […] A significant difference compared with the vector controls is apparent.
Data for the kinetic analysis were obtained for SUT4 from a nonlinear regression of the uptake measurements using the Michaelis-Menten equation. Km was represented as an average of eight determinations using three independent transformants±standard deviation. The KM value for saccharose that was determined was 11.6±0.6 mM (at a pH of 5.5) and 5.9±0.8 mM (at a pH of 4.0) for SUT4 from arabidopsis. For SUT4 from Solanum tuberosum the KM value was 6.0±1.2 mM (pH 4.0) (see FIG. 5B).

Data set [2] is described as follows: yeast growth on a saccharose medium (SUSY7/ura3). As to conditions: 2% saccharose medium, pH 5.0. The format is cell-based. As to the method: as §1, §2

B1: AtSUT4: saccharose transporter SUT4 from Arabidopsis thaliana, amino acid sequence SEQ ID no. 5 (protein, listed as Arabidopsis thaliana)
chain: MATSDQDRRHRATRNRPPIPRPSNSSSRPVVPPPRSKVSKRVLLRVASVACGIQFGWALQLSLLTPYVQELGIPHAWASVIWLCGPLSGLFVQPLVGHSSDRCTSKYGRRRPFIVAGAVAISISVMVIGHAADIGWAFGDREGKIKPRAIVAFVLGFWILDVANNMTQGPCRALLADLTENDNRRTRVANGYFSLFMAVGNVLGYATGSYNGWYKIFTFTKTVACNVECANLKSAFYIDVVFIAITTILSVSAAHEVPLASLTSEAHGQTSGTDEAFLSEIFGTFRYFPGNVWIILLVTALTWIGWFPFILFDTDWMGREIYGGEPNIGTSYSAGVSMGALGLMLNSVFLGITSVLMEKLCRKWGAGFVWGISNILMAICFLGMIITSFVASHLGYIGHEQPPASIVFAAVLIFTILGIPLAITYSVPYALISIRIESLGLGQGLSLGVLNLAIVIPQVIVSVGSGPWDQLFGGGNSPALAVGAATGFIGGIVAILALPRTRIQKPIPLP
Take B1: the “functional saccharose transporter (uptake of 14C-saccharose vs vector controls)” value in data set [1] (FIG. 5A) is given as “functional saccharose transporters”. Further, the Km is 5.9 ± 0.8 mM in data set [1] (pH 4.0, average ± standard deviation) and 11.6 ± 0.6 mM in data set [1] (pH of 5.5, average of eight determinations ± standard deviation). Also, in data set [2], the “yeast growth on saccharose” value is recorded as “permitted yeast to grow on saccharose”.

The Km is the concentration of substrate that gives half-maximal velocity.
